1 molecule from PMC10638775, “Development of synthetic modulator enabling long-term propagation and neurogenesis of human embryonic stem cell-derived neural progenitor cells” can be followed below.

The target in the series is FGFR1 extracellular domain (human, UniProt P11362 22-376). Nature of the series: SPR; 1:1 model; ka 2.20E10 1/Ms, kd 54.9 1/s; SPR: Biacore T200, CM5 amine coupling, HBS running buffer (pH, salt, temperature not stated); flow cytometry: PBS, 1% BSA, 0.1% sodium azide, room temperature. The settings on record: protein: commercial; stem-loop (Mfold). (In general: SPR reads the build-up and loss of mass on a sensor chip optically.)
FGFR1 extracellular domain, sequence (P11362 22-376): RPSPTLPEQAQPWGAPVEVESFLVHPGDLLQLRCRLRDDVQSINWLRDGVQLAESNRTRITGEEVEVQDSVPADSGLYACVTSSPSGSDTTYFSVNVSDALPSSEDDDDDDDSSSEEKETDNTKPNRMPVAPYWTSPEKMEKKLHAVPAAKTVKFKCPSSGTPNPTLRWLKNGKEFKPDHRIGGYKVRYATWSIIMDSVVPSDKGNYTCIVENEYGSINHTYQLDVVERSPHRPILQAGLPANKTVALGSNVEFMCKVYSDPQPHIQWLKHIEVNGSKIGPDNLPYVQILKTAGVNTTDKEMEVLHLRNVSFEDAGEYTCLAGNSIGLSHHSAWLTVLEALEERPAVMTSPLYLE

As a reminder, the Kd is the equilibrium constant for the complex coming apart.

B1: FGFR-binder (structured_DNA)
DNA: GCCGCGTCTTTATGGCTGGGGATGGTGTGGGTTGCGGC
In the case of B1, the Kd turned out to be 2.5 nM.
